B1: clathrin light chain, Mr 36,000 (natural protein, bovine (calf brain), UniProt P04973 1-243, looked up)
chain: MAELDPFGVPAGGPALGNGVAGEEDPAAAFLAQQESEIAGIENDEAFAILDGGAPGSQPHGEPPGIPDAVDGVTNGDYYQESNGPTDSYAAISQVDRLQSEPESIRKWREEQTERLEALDANSRKQEAEWKEKAIKELDEWYARQDEQLQKTKANNRVADEAFYKQPFADVIGYVTNINHPCYSLEQAAEEAFVNDIEESSPGTEWERVARLCDFNPKSSKQAKDVSRMRSVLISLKQAPLVH
B2: clathrin light chain, Mr 33,000 (natural protein, bovine (calf brain), UniProt P04975 1-228, looked up)
chain: MADDFGFFSSSESGAPEAAEEDPAAAFLAQQESEIAGIENDEGFGAPAGSQGGLAQPGPASGASEDMGATVNGDVFQEANGPADGYAAIAQADRLTQEPESIRKWREEQRKRLQELDAASKVMEQEWREKAKKDLEEWNQRQSEQVEKNKINNRIADKAFYQQPDADIIGYVASEEAFVKESKEETPGTEWEKVAQLCDFNPKSSKQCKDVSRLRSVLMSLKQTPLSR

Target: clathrin (Mr ~180,000 polypeptide) (bovine (calf brain), UniProt P49951 1-1675)
Experiment: co-sedimentation

Sequence of clathrin (Mr ~180,000 polypeptide) (P49951 whole entry): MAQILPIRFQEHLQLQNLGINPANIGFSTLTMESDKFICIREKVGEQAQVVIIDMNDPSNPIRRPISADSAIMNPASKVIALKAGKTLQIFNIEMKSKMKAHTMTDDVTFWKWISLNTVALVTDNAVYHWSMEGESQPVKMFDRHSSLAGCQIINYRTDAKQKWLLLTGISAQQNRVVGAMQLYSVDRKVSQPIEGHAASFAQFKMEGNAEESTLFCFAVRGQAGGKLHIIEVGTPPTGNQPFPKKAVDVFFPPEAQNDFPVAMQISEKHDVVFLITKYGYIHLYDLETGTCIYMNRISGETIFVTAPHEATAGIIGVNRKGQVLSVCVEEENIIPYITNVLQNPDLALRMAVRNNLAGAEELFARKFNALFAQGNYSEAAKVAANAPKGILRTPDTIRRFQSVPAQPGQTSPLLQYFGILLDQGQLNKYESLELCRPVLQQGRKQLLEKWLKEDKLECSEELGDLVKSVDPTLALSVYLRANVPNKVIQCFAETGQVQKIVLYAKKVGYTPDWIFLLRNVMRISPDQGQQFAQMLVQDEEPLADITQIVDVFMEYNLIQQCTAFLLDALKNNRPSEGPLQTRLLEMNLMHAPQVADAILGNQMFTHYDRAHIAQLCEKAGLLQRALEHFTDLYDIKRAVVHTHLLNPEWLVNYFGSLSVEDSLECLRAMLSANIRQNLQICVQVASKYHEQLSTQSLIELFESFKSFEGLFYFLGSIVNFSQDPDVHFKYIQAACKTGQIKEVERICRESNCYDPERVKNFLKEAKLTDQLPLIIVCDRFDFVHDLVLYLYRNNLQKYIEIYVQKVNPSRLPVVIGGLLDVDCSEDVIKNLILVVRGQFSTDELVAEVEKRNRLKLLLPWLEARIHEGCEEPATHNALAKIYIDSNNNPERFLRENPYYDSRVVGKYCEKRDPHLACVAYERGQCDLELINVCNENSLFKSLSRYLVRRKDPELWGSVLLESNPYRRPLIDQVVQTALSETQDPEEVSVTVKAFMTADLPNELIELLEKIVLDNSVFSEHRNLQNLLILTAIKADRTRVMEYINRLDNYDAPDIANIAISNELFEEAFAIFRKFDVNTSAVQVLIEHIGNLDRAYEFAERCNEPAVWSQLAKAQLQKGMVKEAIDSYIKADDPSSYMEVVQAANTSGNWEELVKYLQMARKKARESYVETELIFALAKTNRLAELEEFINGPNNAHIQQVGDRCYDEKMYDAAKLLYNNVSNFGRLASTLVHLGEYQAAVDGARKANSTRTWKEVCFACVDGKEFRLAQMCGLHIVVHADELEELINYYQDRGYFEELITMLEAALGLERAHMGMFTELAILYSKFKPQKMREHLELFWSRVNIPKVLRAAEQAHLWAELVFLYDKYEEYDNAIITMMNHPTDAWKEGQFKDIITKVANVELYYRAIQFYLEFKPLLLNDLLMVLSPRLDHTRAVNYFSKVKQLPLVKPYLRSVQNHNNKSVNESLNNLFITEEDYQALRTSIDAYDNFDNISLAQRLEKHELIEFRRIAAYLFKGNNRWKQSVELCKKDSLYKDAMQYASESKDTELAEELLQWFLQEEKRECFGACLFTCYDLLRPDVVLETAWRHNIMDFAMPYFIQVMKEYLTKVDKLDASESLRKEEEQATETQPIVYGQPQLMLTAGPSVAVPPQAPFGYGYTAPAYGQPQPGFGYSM

Binder | stoichiometry N
B1 | 0.83 mol per 3.00 mol of 180,000 clathrin (one triskelion)
B2 | 1.62 mol per 3.00 mol of 180,000 clathrin (one triskelion)
